From the supplement of paper PMC6755084

These sequences were tested on F1*sub RNA substrate (template-directed ligation) (assay: fraction ligated after 30 min (ligated reads / total reads); higher = more ligase activity; sequences stand for … in GAGACCGCAACTGAAAAGTTGT…AGTTCTGCACGTAGAAGCAAAAGGC). Details: 42 °C.
Procedure, shortened: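 Ribozyme variants were transcribed with T7 from PCR-amplified oligo-pool templates and gel-purified. Ligated and unligated bands, separated on gel, were reverse transcribed with barcoded primers and sequenced on a MiSeq, with core bases filtered at quality ≥20. Fraction ligated per variant was computed as ligated reads divided by total reads.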

| Sequence | fraction ligated |
| --- | --- |
| ATCACTGTCGAAGACACTTTGGATGGGTTGA [3d110] | 0.775 |
| ATCACTTGCGTAAGACACTTTGGATGGGTTGA [2d8] | 0.836 |
| TATATTGCGTAAGACACTTTGGATGGGTTGA [3d760] | 0.355 |
| TATCACTTGTCGTAAGACTTTGGATGGGTTG [3d2113] | 0.796 |
| TACACTTGTCGTAAGACACTTGGAGGGTTGA [3d717] | 0.0172 |
| TATCCTTGTCGTAAGACACTTTGGAGGGTTG [3d1116] | 0.00286 |
| TATCACTTGTCGTAAGCCTTTGGATGGTTGA [3d2118] | 0.364 |
| ATCACTTGTCGTAAGAACTTTGGATGGGTTG [3d238] | 0.794 |
| TATCACTTGTCGTAAGAATTTGGATGGTTGA [3d2156] | 0.208 |
| TATCACTGCGTAAACACTTTGGATGGGTTGA [3d1331] | 0.838 |
| TATCACTTGTGTAAGCACTTGGATGGGTTGA [3d1757] | 0.805 |
| TATCACTTGTCGTAAGACCTTTGGAGGGTTG [3d2202] | 0.0402 |
| ATCACTTGGTAAGACACTTTGGATGGGTTGA [3d140] | 0.735 |
| TATCATTGTCGTAAGACATTTGGTGGGTTGA [3d1264] | 0.421 |
| TTCACTTGTGTAAGACACTTTGATGGGTTGA [3d396] | 0.122 |
| TATCACTTGTCGAAGACACTTGATGGGTTGA [3d1958] | 0.663 |
| TATCCTTGTCGAAGACACTTTGGTGGGTTGA [3d1037] | 0.181 |
| TATCACTTGCGTAAGACCTTTGATGGGTTGA [3d1668] | 0.789 |
| TATCACTTGTCGTAGACATTTGGAGGGTTGA [3d2031] | 0.0197 |
| TATCACTGTCGTAGACACTTTGGATGGGTTGA [2d134] | 0.861 |
| TATCACTTGTCGTAGACACTTTGGGGGTTGA [3d2048] | 0.0891 |
| TACACTTGTCGTAAGACACTTTGGAGGGTTGA [2d65] | 0.182 |
| TATCATTTCGTAAGAACTTTGGATGGGTTGA [3d1146] | 0.857 |

| Sequence | fraction ligated |
| --- | --- |
| TATACTTGCGTAAGACACTTTGGAGGGTTGA [3d824] | 0.0191 |
| TTCACTTTCGTAAGACACTTTGGATGGGTTG [3d370] | 0.184 |
| TATCACTTTCGTAAACACTTTGGATGGGTTA [3d1527] | 0.575 |
| TATCACTTGTCGTAAACCTTTGGATGGGTTGA [2d235] | 0.785 |
| TATCACTTGTGTAAACACTTGGATGGGTTGA [3d1747] | 0.816 |
| TACACTTGTCGTAAGACACTTTGGTGGTTGA [3d728] | 0.0111 |
| TACACTTGTCGTAACACTTTGGATGGGTTGA [3d660] | 0.00473 |
| TATCACTTGTCTAAGACACTTTGAGGGTTGA [3d1887] | 0.0527 |
| TATCACTTGTGTAAGACATTTGGTGGGTTGA [3d1781] | 0.0614 |
| TATCACTTTCAAGACACTTTGGATGGGTTGA [3d1479] | 0.772 |
| TATCACTTTCTAAGACACTTTGGATGGGTTA [3d1491] | 0.68 |
| TATCACTTGTCGAAGACACTTGGATGGGTTA [3d1962] | 0.721 |
| TTCCTTGTCGTAAGACACTTTGGATGGTTGA [3d314] | 0.175 |
| TTCACTTGTCGTAAGACACTTTGGATGGTTA [3d504] | 0.636 |
| TATACTTGTGTAAACACTTTGGATGGGTTGA [3d831] | 0.799 |
| TATCACTTGTCGAAGAACTTTGGATGGTTGA [3d1940] | 0.187 |
| TATCCTTGTCGAAGACACTTTGGATGGTTGA [3d1039] | 0.0395 |
| TATCACTTGTTAAACACTTTGGATGGGTTGA [3d1706] | 0.842 |
| TATCACTTGTGTAAGACACTTTGGATGGGTTGA [1d10] | 0.859 |
| TATCACTTGTCGTAAGCATTTGGATGGGTTGA [2d246] | 0.849 |
| TATCACTGTCGTAAGACACTTTGGATGGGTT [3d1462] | 0.365 |
| TATCACTTGTCGTAAGAACTTTGGATGGTTA [3d2179] | 0.11 |
| TATCACTTTCGTAAACACTTTGATGGGTTGA [3d1523] | 0.768 |

| Sequence | fraction ligated |
| --- | --- |
| TATCACTTGTCGTAAGAATTTGGATGGGTTG [3d2158] | 0.798 |
| TATCCTTGTCGTAGACATTTGGATGGGTTGA [3d1047] | 0.768 |
| TATCACTTTCGTAGACACTTTGGATGGGTTA [3d1517] | 0.631 |
| ATCACTTGTCGTAGACCTTTGGATGGGTTGA [3d202] | 0.767 |
| TATCACTTGCGTAAACCTTTGGATGGGTTGA [3d1640] | 0.821 |
| TTCACTTGTCGTAAGACACTGGATGGGTTGA [3d484] | 0.705 |
| TATCACTTGTCGTAAGAACTTGGATGGGTTG [3d2165] | 0.777 |
| TATCACTTGCTAGACACTTTGGATGGGTTGA [3d1600] | 0.805 |
| TATCACTTGTCGTAAACCTTTGGAGGGTTGA [3d2070] | 0.15 |
| TATCATTTCGTAAGACACTTGGATGGGTTGA [3d1149] | 0.763 |
| TTCACTTGTCGTAGACACTTTGGATGGGTTG [3d441] | 0.801 |
| TATCACTTGCTAAGACACTTTGGATGGGTTGA [2d164] | 0.822 |
| TTCACTTGTCGTAAGACATTTGATGGGTTGA [3d478] | 0.0347 |
| TATACTTGTCGAGACACTTTGGATGGGTTGA [3d857] | 0.704 |
| ATCACTGCGTAAGACACTTTGGATGGGTTGA [3d107] | 0.818 |
| TTCACTTTCGAAGACACTTTGGATGGGTTGA [3d357] | 0.145 |
| TATACTTGTCGTAAACACTTTGGATGGGTTA [3d891] | 0.00216 |
| TACATTGCGTAAGACACTTTGGATGGGTTGA [3d549] | 0.0211 |
| TATACTTTCGTAAGACACTTTGGTGGGTTGA [3d807] | 0.00703 |
| TATCCTTGTCGTAAACACTTTGGATGGGTTG [3d1064] | 0.805 |
| TATCATTTCGTAAGACACTTTGGTGGGTTGA [3d1151] | 0.1 |
| TATCACTTGTCGTAAGACCTGGATGGGTTGA [3d2183] | 0.757 |
| TATCACTGTCGTAGACCTTTGGATGGGTTGA [3d1389] | 0.837 |

| Sequence | fraction ligated |
| --- | --- |
| TATCACTTCTAAGACACTTTGGATGGGTTGA [3d1312] | 0.774 |
| TATCATTGTCGTAGACACTTTGGATGGTTGA [3d1224] | 0.305 |
| TATCATTGTCTAAGACCTTTGGATGGGTTGA [3d1192] | 0.758 |
| TACACTTGTCGTAAGACACTTTGGAGGTTGA [3d731] | 0 |
| TATCCTTGTCGTAAGACCTTTGGATGGGTTG [3d1089] | 0.762 |
| TTCACTTTCGTAAGACCTTTGGATGGGTTGA [3d362] | 0.437 |
| TATCATTGTCGTAAGCACTTTGGAGGGTTGA [3d1243] | 0.0203 |
| TATCACTTGTCGTAGACACTTGGAGGGTTGA [3d2038] | 0.0635 |
| TACACTGTCGTAAGACACTTTGATGGGTTGA [3d579] | 0.279 |
| TATCATTGTCGTAAGACACTTTGGATGGGTTG [2d127] | 0.784 |
| TATCACTTGTCTAGACACTTTGGATGGGTTGA [2d195] | 0.799 |
| TATCACTTGTCGAAGACACTTGGAGGGTTGA [3d1960] | 0.0758 |
| TATCACTTGCGAAGACACTTGGATGGGTTGA [3d1619] | 0.785 |
| TATCACTTGTCTAAAACTTTGGATGGGTTGA [3d1836] | 0.789 |
| ATCACTGTCGTAAGAACTTTGGATGGGTTGA [3d114] | 0.848 |
| TATACTTGTCGTAAGCACTTTGGTGGGTTGA [3d898] | 0.025 |
| TATCACTTGTGTAAGACACTTTGGATGGGTTA [2d192] | 0.823 |
| TATCACTTGCGTAAGACACTTGATGGGTTGA [3d1682] | 0.747 |
| TATCACTTGTCGTAAGACACTTTGGGGGTTGA [2d289] | 0.0225 |
| TATCCTGTCGTAAGACACTTGGATGGGTTGA [3d961] | 0.794 |
| TATCACTTGTCTAAGCACTTTGGATGGGTTA [3d1854] | 0.712 |
| TATCCTTGTCGTAAACATTTGGATGGGTTGA [3d1057] | 0.771 |
| TACACTTGTCGTAAGACCTTTGGATGGGTTA [3d705] | 0.136 |

| Sequence | fraction ligated |
| --- | --- |
| ATCACTTGTCGTAAGACACTTGGATGGGTTGA [2d18] | 0.761 |
| TTCACTGTCGTAAGAACTTTGGATGGGTTGA [3d345] | 0.788 |
| TATCACTTGCGTAAGACACTTGGATGGGTTA [3d1686] | 0.558 |
| TATCACTTGTCGTAAGCCTTTGGTGGGTTGA [3d2116] | 0.243 |
| TATCACTTGTCTAAGACACTTTGGATGGTTA [3d1898] | 0.372 |
| TTCACTTGTCGTAAACACTTTGGATGGGTTG [3d451] | 0.177 |
| TATACTTGTCGTAAGACATTTGGATGGGTTG [3d924] | 0.714 |
| TATCCTTGTCGAAGACACTTTGGAGGGTTGA [3d1038] | 0.016 |
| TATCACTGTCGTAAACACTTTGGAGGGTTGA [3d1404] | 0.0511 |
| TATCACTTGTCGTGACACTTTGGATGGTTGA [3d1990] | 0.0934 |
| TACACTTGTCGTAAGACACTTGGATGGGTTA [3d719] | 0.0331 |
| TATCACTGTCGTAGACACTTTGGATGGGTTG [3d1397] | 0.811 |
| TATCACTTGTCTAAACACTTTGGATGGGTTG [3d1845] | 0.792 |
| TATCCTGTCGTAAGACCTTTGGATGGGTTGA [3d959] | 0.772 |
| TTCACTTGCGTAAGACACTTTGGATGGGTTA [3d385] | 0.0657 |
| TACACTTGTGTAGACACTTTGGATGGGTTGA [3d619] | 0.0703 |
| TATCATTGTCGTAGACATTTGGATGGGTTGA [3d1219] | 0.809 |
| ATCATTGTCGTAAGACACTTTGGTGGGTTGA [3d100] | 0.109 |
| TATCACTTGTCGTAAACATTTGGAGGGTTGA [3d2077] | 0.0367 |
| TATCATTGTGTAAGACACTTTGGATGGGTTG [3d1186] | 0.786 |
